Experiments:
[1] = target: human pro B-type natriuretic peptide (HyTest, Turku, Finland; Catalog No. 8PRO8) (human); experiment: sandwich CMIA, capture 15C4, analyte 288.7 pM
[2] = target: glycosylated human proBNP (HyTest, Turku, Finland; Catalog No. 8GOB2) (human); experiment: sandwich CMIA, capture 15C4, analyte 288.7 pM
[3] = target: human NT-pro B-type natriuretic peptide (HyTest, Turku, Finland; Catalog No. 8NT1) (human); experiment: sandwich CMIA, capture 15C4, analyte 288.7 pM
[4] = target: human pro B-type natriuretic peptide (HyTest, Turku, Finland; Catalog No. 8PRO8) (human); experiment: sandwich CMIA, capture 15C4, analyte 86.6 pM
[5] = target: glycosylated human proBNP (HyTest, Turku, Finland; Catalog No. 8GOB2) (human); experiment: sandwich CMIA, capture 15C4, analyte 86.6 pM
[6] = target: human NT-pro B-type natriuretic peptide (HyTest, Turku, Finland; Catalog No. 8NT1) (human); experiment: sandwich CMIA, capture 15C4, analyte 86.6 pM
[7] = target: human pro B-type natriuretic peptide (HyTest, Turku, Finland; Catalog No. 8PRO8) (human); experiment: sandwich CMIA, capture 15C4, analyte 43.3 pM
[8] = target: glycosylated human proBNP (HyTest, Turku, Finland; Catalog No. 8GOB2) (human); experiment: sandwich CMIA, capture 15C4, analyte 43.3 pM
[9] = target: human NT-pro B-type natriuretic peptide (HyTest, Turku, Finland; Catalog No. 8NT1) (human); experiment: sandwich CMIA, capture 15C4, analyte 43.3 pM
[10] = target: human pro B-type natriuretic peptide (HyTest, Turku, Finland; Catalog No. 8PRO8) (human); experiment: sandwich CMIA, capture 15C4, analyte 577.4 pM
[11] = target: glycosylated human proBNP (HyTest, Turku, Finland; Catalog No. 8GOB2) (human); experiment: sandwich CMIA, capture 15C4, analyte 577.4 pM
[12] = target: human NT-pro B-type natriuretic peptide (HyTest, Turku, Finland; Catalog No. 8NT1) (human); experiment: sandwich CMIA, capture 15C4, analyte 577.4 pM
[13] = target: human pro B-type natriuretic peptide (HyTest, Turku, Finland; Catalog No. 8PRO8) (human); experiment: sandwich CMIA, capture 15F11, analyte 288.7 pM
[14] = target: glycosylated human proBNP (HyTest, Turku, Finland; Catalog No. 8GOB2) (human); experiment: sandwich CMIA, capture 15F11, analyte 288.7 pM
[15] = target: human NT-pro B-type natriuretic peptide (HyTest, Turku, Finland; Catalog No. 8NT1) (human); experiment: sandwich CMIA, capture 15F11, analyte 288.7 pM
[16] = target: human pro B-type natriuretic peptide (HyTest, Turku, Finland; Catalog No. 8PRO8) (human); experiment: sandwich CMIA, capture 15F11, analyte 86.6 pM
[17] = target: glycosylated human proBNP (HyTest, Turku, Finland; Catalog No. 8GOB2) (human); experiment: sandwich CMIA, capture 15F11, analyte 86.6 pM
[18] = target: human NT-pro B-type natriuretic peptide (HyTest, Turku, Finland; Catalog No. 8NT1) (human); experiment: sandwich CMIA, capture 15F11, analyte 86.6 pM
[19] = target: human pro B-type natriuretic peptide (HyTest, Turku, Finland; Catalog No. 8PRO8) (human); experiment: sandwich CMIA, capture 15F11, analyte 0.0 pM (blank)
[20] = target: glycosylated human proBNP (HyTest, Turku, Finland; Catalog No. 8GOB2) (human); experiment: as above
[21] = target: human NT-pro B-type natriuretic peptide (HyTest, Turku, Finland; Catalog No. 8NT1) (human); experiment: as above
[22] = target: human pro B-type natriuretic peptide (HyTest, Turku, Finland; Catalog No. 8PRO8) (human); experiment: sandwich CMIA, capture 15F11, analyte 577.4 pM
[23] = target: glycosylated human proBNP (HyTest, Turku, Finland; Catalog No. 8GOB2) (human); experiment: sandwich CMIA, capture 15F11, analyte 577.4 pM
[24] = target: human NT-pro B-type natriuretic peptide (HyTest, Turku, Finland; Catalog No. 8NT1) (human); experiment: sandwich CMIA, capture 15F11, analyte 577.4 pM
[25] = target: human pro B-type natriuretic peptide (HyTest, Turku, Finland; Catalog No. 8PRO8) (human); experiment: sandwich CMIA, capture 15C4, analyte 0.0 pM (blank)
[26] = target: glycosylated human proBNP (HyTest, Turku, Finland; Catalog No. 8GOB2) (human); experiment: as above
[27] = target: human NT-pro B-type natriuretic peptide (HyTest, Turku, Finland; Catalog No. 8NT1) (human); experiment: as above
[28] = target: human pro B-type natriuretic peptide (HyTest, Turku, Finland; Catalog No. 8PRO8) (human); experiment: sandwich CMIA, capture 15F11, analyte 43.3 pM
[29] = target: glycosylated human proBNP (HyTest, Turku, Finland; Catalog No. 8GOB2) (human); experiment: sandwich CMIA, capture 15F11, analyte 43.3 pM
[30] = target: human NT-pro B-type natriuretic peptide (HyTest, Turku, Finland; Catalog No. 8NT1) (human); experiment: sandwich CMIA, capture 15F11, analyte 43.3 pM
[31] = target: human pro B-type natriuretic peptide (HyTest, Turku, Finland; Catalog No. 8PRO8) (human); experiment: sandwich CMIA, capture 15F11, 43.3 pM, against human NT-proBNP
[32] = target: glycosylated human proBNP (HyTest, Turku, Finland; Catalog No. 8GOB2) (human); experiment: as above
[33] = target: human pro B-type natriuretic peptide (HyTest, Turku, Finland; Catalog No. 8PRO8) (human); experiment: sandwich CMIA, capture 15F11, 577.4 pM, against human NT-proBNP
[34] = target: glycosylated human proBNP (HyTest, Turku, Finland; Catalog No. 8GOB2) (human); experiment: as above
[35] = target: human pro B-type natriuretic peptide (HyTest, Turku, Finland; Catalog No. 8PRO8) (human); experiment: sandwich CMIA, capture 15F11, 86.6 pM, against human NT-proBNP
[36] = target: glycosylated human proBNP (HyTest, Turku, Finland; Catalog No. 8GOB2) (human); experiment: as above
[37] = target: human pro B-type natriuretic peptide (HyTest, Turku, Finland; Catalog No. 8PRO8) (human); experiment: sandwich CMIA, capture 15F11, 288.7 pM, against human NT-proBNP
[38] = target: glycosylated human proBNP (HyTest, Turku, Finland; Catalog No. 8GOB2) (human); experiment: as above
[39] = target: human pro B-type natriuretic peptide (HyTest, Turku, Finland; Catalog No. 8PRO8) (human); experiment: sandwich CMIA, capture 15F11, against human NT-proBNP

Chain of human pro B-type natriuretic peptide (HyTest, Turku, Finland; Catalog No. 8PRO8) (human) (chain, as listed by the source): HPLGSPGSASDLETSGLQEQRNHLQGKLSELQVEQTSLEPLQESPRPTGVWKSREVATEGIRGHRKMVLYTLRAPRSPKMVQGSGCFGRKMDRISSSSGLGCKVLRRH
Chain of human NT-pro B-type natriuretic peptide (HyTest, Turku, Finland; Catalog No. 8NT1) (human) (chain, as listed by the source): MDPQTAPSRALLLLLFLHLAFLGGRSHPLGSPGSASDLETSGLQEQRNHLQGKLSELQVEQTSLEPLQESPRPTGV

anti-human NT-proBNP/anti-human proBNP labeled monoclonal antibody 7B5 (HyTest, Turku, Finland)
Analyte rlus [1]: 607 rlus
Analyte rlus [2]: 672 rlus
Analyte rlus [3]: 1180 rlus
Analyte rlus [4]: 641 rlus
Analyte rlus [5]: 581 rlus
Analyte rlus [6]: 719 rlus
Analyte rlus [7]: 686 rlus
Analyte rlus [8]: 606 rlus
Analyte rlus [9]: 750 rlus
Analyte rlus [10]: 726 rlus
Analyte rlus [11]: 800 rlus
Analyte rlus [12]: 2180 rlus
Analyte rlus [13]: 556 rlus
Analyte rlus [14]: 525 rlus
Analyte rlus [15]: 593 rlus
Analyte rlus [16]: 529 rlus
Analyte rlus [17]: 505 rlus
Analyte rlus [18]: 549 rlus
Analyte rlus [19]: 615 rlus
Analyte rlus [20]: 615 rlus
Analyte rlus [21]: 615 rlus
Analyte rlus [22]: 612 rlus
Analyte rlus [23]: 600 rlus
Analyte rlus [24]: 534 rlus
Analyte rlus [25]: 590 rlus
Analyte rlus [26]: 590 rlus
Analyte rlus [27]: 590 rlus
Analyte rlus [28]: 589 rlus
Analyte rlus [29]: 528 rlus
Analyte rlus [30]: 615 rlus

anti-human NT proBNP/anti-human proBNP monoclonal antibody 15F11 (HyTest, Turku, Finland)
Analyte rlus [1]: 945 rlus
Analyte rlus [2]: 930 rlus
Analyte rlus [3]: 1140 rlus
Analyte rlus [4]: 1040 rlus
Analyte rlus [5]: 835 rlus
Analyte rlus [6]: 998 rlus
Analyte rlus [7]: 851 rlus
Analyte rlus [8]: 1010 rlus
Analyte rlus [9]: 883 rlus
Analyte rlus [10]: 917 rlus
Analyte rlus [11]: 859 rlus
Analyte rlus [12]: 1370 rlus
Analyte rlus [13]: 949 rlus
Analyte rlus [14]: 925 rlus
Analyte rlus [15]: 977 rlus
Analyte rlus [16]: 963 rlus
Analyte rlus [17]: 886 rlus
Analyte rlus [18]: 929 rlus
Analyte rlus [19]: 912 rlus
Analyte rlus [20]: 912 rlus
Analyte rlus [21]: 912 rlus
Analyte rlus [22]: 897 rlus
Analyte rlus [23]: 953 rlus
Analyte rlus [24]: 1010 rlus
Analyte rlus [25]: 847 rlus
Analyte rlus [26]: 847 rlus
Analyte rlus [27]: 847 rlus
Analyte rlus [28]: 857 rlus
Analyte rlus [29]: 899 rlus
Analyte rlus [30]: 904 rlus

anti-human NT proBNP/anti-human proBNP monoclonal antibody 15C4 (HyTest, Turku, Finland)
% Cross-reactivity [31]: 0.7%
% Cross-reactivity [32]: -0.4%
Analyte rlus [1]: 1880 rlus
Analyte rlus [2]: 1860 rlus
Analyte rlus [3]: 2060 rlus
Analyte rlus [4]: 1820 rlus
Analyte rlus [5]: 1880 rlus
Analyte rlus [6]: 2000 rlus
Analyte rlus [7]: 2180 rlus
Analyte rlus [8]: 1800 rlus
Analyte rlus [9]: 1980 rlus
Analyte rlus [10]: 1960 rlus
Analyte rlus [11]: 1790 rlus
Analyte rlus [12]: 2080 rlus
% Cross-reactivity [33]: 0.3%
% Cross-reactivity [34]: 0%
% Cross-reactivity [35]: 0.4%
% Cross-reactivity [36]: 1.2%
Analyte rlus [13]: 2190 rlus
Analyte rlus [14]: 1580 rlus
Analyte rlus [15]: 312000 rlus
Analyte rlus [16]: 1540 rlus
Analyte rlus [17]: 2010 rlus
Analyte rlus [18]: 57200 rlus
% Cross-reactivity [37]: 0.3%
% Cross-reactivity [38]: 0.1%
Analyte rlus [19]: 1340 rlus
Analyte rlus [20]: 1340 rlus
Analyte rlus [21]: 1340 rlus
% Cross-reactivity [39]: < 1%
Analyte rlus [22]: 3360 rlus
Analyte rlus [23]: 1450 rlus
Analyte rlus [24]: 662000 rlus
Analyte rlus [25]: 1940 rlus
Analyte rlus [26]: 1940 rlus
Analyte rlus [27]: 1940 rlus
Analyte rlus [28]: 1490 rlus
Analyte rlus [29]: 1260 rlus
Analyte rlus [30]: 21200 rlus

anti-human NT-proBNP/anti-human proBNP labeled monoclonal antibody 24E11 (HyTest, Turku, Finland)
% Cross-reactivity [31]: 0.3%
% Cross-reactivity [32]: -0.4%
Analyte rlus [1]: 834 rlus
Analyte rlus [2]: 725 rlus
Analyte rlus [3]: 814 rlus
Analyte rlus [4]: 747 rlus
Analyte rlus [5]: 751 rlus
Analyte rlus [6]: 699 rlus
Analyte rlus [7]: 718 rlus
Analyte rlus [8]: 781 rlus
Analyte rlus [9]: 786 rlus
Analyte rlus [10]: 735 rlus
Analyte rlus [11]: 770 rlus
Analyte rlus [12]: 850 rlus
% Cross-reactivity [33]: 0.1%
% Cross-reactivity [34]: 0%
% Cross-reactivity [35]: 0.3%
% Cross-reactivity [36]: 0.2%
Analyte rlus [13]: 1090 rlus
Analyte rlus [14]: 906 rlus
Analyte rlus [15]: 124000 rlus
Analyte rlus [16]: 938 rlus
Analyte rlus [17]: 918 rlus
Analyte rlus [18]: 20800 rlus
% Cross-reactivity [37]: 0.2%
% Cross-reactivity [38]: 0%
Analyte rlus [19]: 886 rlus
Analyte rlus [20]: 886 rlus
Analyte rlus [21]: 886 rlus
% Cross-reactivity [39]: < 1%
Analyte rlus [22]: 1240 rlus
Analyte rlus [23]: 892 rlus
Analyte rlus [24]: 357000 rlus
Analyte rlus [25]: 821 rlus
Analyte rlus [26]: 821 rlus
Analyte rlus [27]: 821 rlus
Analyte rlus [28]: 904 rlus
Analyte rlus [29]: 863 rlus
Analyte rlus [30]: 7380 rlus

— patent publication US20120122239A1
